The nature of the series: label from the status in PepcDB records.
Take “MILLSVHDSFLLDHNLPSACDKVFERLLDVTNSSFGFIATLQEDEDGQSLYLPAISNLAWDEETLTWYRHQRRTHGGLRLRKLDNLFGHVVTHNTVVCTNSLLRQKAGRDLPPIHPALHSLLGIPITHNGKTVGMIALANRREGYDQTMIELEHHHHHH”: the protein production result was “failed”.
On to “MISNKRRPKIKIWNKEQMALYLKAIKKDRLYAAFVTDSKSGLRKSELLALRWSDIDFSTGLTKIERGWVRSPKGTLYLSDLKSENSERTLVFSTDLLKVLLEHKSRQDEEKKTAGKNYIDNGLVFCREDGSYINPSTFTRRHYDLTAKAKLPRISVHALRHSISTALLESGKVDLKQIQEMLGHKDISTTGNYYTDVLERMKQKTSELIDNLIQTELEHHHHHH”, for which the protein production entry was “failed”.
For “MDLVPLKLVTIVAESLLEKRLVEEVKRLGAKGYTITPARGEGSRGIRSVDWEGQNIRLETIVSEEVALRILQRLQEEYFPHYAVIAYVENVWVVRGEKYV”, the protein production result is given as “not failed”.
“MSDCLFDLHIGYVRFKNPIALAPMAGIVDSAFANQYASNAGLVILGAFNLDKASIAVASALVARGRKEFISDEPMEFMKKEIRAVTSGSAVAVNVRSTTLEPLIEAAKIVKEEGAILELNAHCRQPEMLEAGLGEALLHDLPKLSAWIRAIKETGVVLSVKVRANVVNDIELARLIDKAGADIIHVDAEMEGFGADLDAILNYRDATRLFLIGNNSVKDFEAAKEMFTRGADMVSAARGVLENSGLIQELVENVTSYQQSIGWYNAPKHVCSEGDFRGLAFCCLPVKPCPVHEKFQKLGYTAEEFARTKLDFAKGTMLEYGEDTCFGSLVWCCKITKPCWIRDGVLNTIGLSDTEYMKLKKQLAEYVLDHARIPVNESQ”: the protein production entry was “failed”.
As to “KPQEGIGARCRRALKDLPLTNLSRLLQCELAEGKALRWGADSLEPAAVVGLNSLGSLVWAPGQPSRWPVPLLLLGGTLDLITPPLDEQLGVFSALASHPSSRVVVVEGASHFSPIRVGEPMA”, the protein production result is reported as “failed”.
With “MLSFLSARQSGLEDPLRLRRAQSTRRVLGLELNKDRDVERIHGSGVNTLDIEPVEGRYMLSGGSDGVVVLYDLENASRQPHYTCKAVCSVGRSHPDVHKYSVETVQWYPHDTGMFTSSSFDKTLKVWDTNTLQAADVFNFEETVYSHHMSPAATKHCLVAVGTRGPKVQLCDLKSGSCSHILQGHRQEILAVSWSPRHDYILATASADSRVKLWDVRRASGCLLTLDQHNGKKSQAAESANTAHNGKVNGLCFTSDGLHLLTIGTDNRMRLWNSSSGDNTLVNYGKVCNDSRKGLQFAVSCGCSSEFVFVPHGSTIAVYAVHSGERLAMLKGHYKSVDCCVFQPNFQELYSGSRDCNILAWVPPSYEPVPDDDDEAPAKSQLNPAFADAWSSSDEDG”, the protein production entry is “failed”.
To “MEFAPRSVVIEEFIDTLEPMMEAYGLDQVGIFEEHGEGNRYYVGYTINKDDEMITIHMPFVKNERGELALEKQEWTVRKDGREKKGFHSLQEAMEEVIHS” belongs “not failed”.
Regarding “MPAKRRSNARPARAWPTCLSRGSSAVKRVHVAAAVIRDASGKILIARRADTQHQGGLWEFPGGKVEPGEAVEAALARELQEELGIAVTAARPLIKVQHDYPDKQVLLDVWEVSAFSGEPHGAEGQPLAWVTARELADYEFPAANQPIVAAARLPAQYLITPEGLETPTLLRGMQKAVAQGCKLIQLRAPGGYDPQYRDLAVDAVGLCAGKAQLMLKGPFEWLGDFPSAGWHITAAQLRKYASAGRPFGKDRWLAASCHNAEELSLAQQMDVDFVTLSPVQPTQTHPDAQPLGWQQAEQLISGFNKPVYLLGGVGPAECQQAWAAGAQGVAGIRAFWPQD”, the protein production result is “failed”.
For the sequence “MEDLTASVTNRTVSLPLSCVTTDFGLGVIYASKNQESKTTREKPMLVTLNSSLEHTYQKDFKSLREILSRKVAWQTEAVNAISQIICGCKTDSTRRNQASGIWLALLGPDKVGKKKVAMTLSEVFFGGKVNYICVDFGAEHCSLDDKFRGKTVVDYVTGELSRKPHSVVLLENVEKAEFPDQMRLSEAVSTGKIRDLHGRVISMKNVIVVVTSGIAKDNATDHVIKPVKFPEEQVLSARSWKLQIKLGDATKFGVNKRKYELETAQRAVKVQRSYLDLNLPVNETEFSPDHEAEDRDAWFDEFIEKVDGKVTFKPVDFDELAKNIQEKIGSHFERCFGSETHLELDKEVILQILAASWSSLSSGEEEGRTIVDQWMQTVLARSFAEAKQKYGSNPMLGVKLVASSSGLASGVELPAKVDVIW”, the protein production result is listed as “failed”.
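Also: failed if final PepcDB status was selected cloned or expressed and not failed if soluble or beyond.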
